Experimental findings from US20160280788A1, “USE OF ANTIBODIES AGAINST ICAM-1 IN THE TREATMENT OF PATIENTS WITH RELAPSED CANCER” (BioInvent International AB, priority 2010, published 2016) are described below.

Data set [1] relates to ARH-77 cells. Description: Disseminated scid/ARH-77 model of multiple myeloma. It counts as in vivo, scid mice. The settings on record: i.v. on Days 7, 10, 13, 16; antibody 2 mg/kg, bortezomib 0.5 mg/kg; vs control. As for the experimental part: (§1) ARH-77 cells or RPMI-8226 were injected intraveniously into the SCID mice. (FIG. 6A) ARH-77 model. Animals received intravenous injections with antibody at 2 mg/kg or bortezomib (Velcade) at 0.5 mg/kg on Days 7, 10, 13, and 16 (as indicated by arrows in the graph). (FIG. 6B) RPMI-8226-model. BI-505 or control mAb was administered i.v at 2 mg/kg, twice weekly for 8 weeks, bortezomid, at 1 mg/kg, once weekly for 8 weeks, lenalidomide p.o with 2 mg/kg for 2 cycles consisting of 5 days of treatment and 2 days of wash out, melphalan i.v at 3 mg/kg, once weekly for 8 weeks, and dexamethasone (DXH) at 6 mg/kg/inj 3 times/week for 2 consecutive weeks. There were 6-10 mice per treatment group. Statistical significance was calculated using Log-rank Graphpad Prism software and determined at ***p<0.001. (FIG. 6C) To study the ICAM-1 level on human cells, the cells from different organs were stained and gated for CD38+/mCD45−/BI-505+. Left panel indicates the percentage of BI-505 positive cells in CD38+/mCD45 population and right panel the mean fluorescent intensity of the positive cells.
The anti-myeloma effect of BI-505 was examined in a disseminated model of multiple myeloma. The early and advanced disseminated model of multiple myeloma was performed at Oncodesign, Dijon, France. Briefly: 1×10^6 (early) or 5×10^6 (advanced) ARH-77 tumor cells in 200 μL of RPMI 1640 were injected intravenously (i.v) into the caudal vein of female scid mice (D0). Tumor cell injections were performed twenty four to forty eight hours after a whole body irradiation of mice (1.8 Gy, ^60Co, INRA, BRETENNIERES). The treatment was started at D5 (RPMI-8226 model) or D7 ([…] model) except alkeran which was administered at D10. B11 or control mAb was administered i.v. at 2 mg/kg, twice weekly for 8 weeks, bortezomib, at 1 mg/kg, once weekly for 8 weeks, lenalidomide p.o with 2 mg/kg for 2 cycles consisting of 5 days of treatment and 2 days of wash out, melphalan i.v. at 3 mg/kg, once weekly for 8 weeks and dexamethasone at 6 mg/kg, injected 2 consecutive weeks.
The disseminated model of scid/ARH-77 is a well-established experimental model that resembles human multiple myeloma disease progression and disease manifestation in many respects (33). We utilized this model to further characterize IgG B11 anti-myeloma activity (FIG. 6A). Intravenous injection of irradiated scid mice with 1×10^6 ARH-77 cells was previously shown to result in their dissemination and establishment in mouse bone-marrow, and resulting osteolytic bone-lesions and hypercalcemia, and ultimately, in animal paralysis or difficulty of breathing at which time animals were immediately sacrificed. […]

Data set [2] concerns RPMI-8226 myeloma cells. Briefly: Disseminated RPMI-8226 model of multiple myeloma. The following applies: 2 mg/kg i.v. twice weekly for 8 weeks, vs control mAb and standard of care drugs. Type of data set: in vivo, SCID mice. As for the experimental part: as §1
The anti-myeloma effect of BI-505 was examined in a disseminated model of multiple myeloma. The early and advanced disseminated model of multiple myeloma was performed at Oncodesign, Dijon, France. […]

Data set [3] can be described thus: Mouse serum antibody levels by ELISA at end of xenograft experiment. It counts as in vivo. The settings on record: mouse serum at end of experimentation. As for the experimental part: We next performed a dose-titration experiment to establish IgG B11 in vivo potency and the minimal dose achieving maximal anti-tumor activity, using the scid/ARH-77 model system. […] Mouse serum antibody trough concentrations were determined by ELISA at the end of experimentation. Trough antibody concentrations were then plotted against percent of maximal in vivo anti-tumour activity, and against percent of maximal ICAM-1 receptor occupancy and tumour cell PCD at corresponding antibody concentrations in vitro (FIGS. 3C, 3D, 3E, 3F and 3G). Strikingly, a near perfect correlation between antibody concentration and in vitro tumour cell receptor occupancy, in vitro tumor cell PCD, and in vivo anti-tumour activity was observed, consistent with ICAM-1 dependent direct cell cytotoxicity underlying in vivo anti-tumour activity.

The target in data set [4] is T1, mouse FcγRIV (Mus musculus, UniProt A0A0B4J1G0).
T1 construct: made in house; host or cells: HEK293E (transient)
T1 sequence (A0A0B4J1G0 21-249): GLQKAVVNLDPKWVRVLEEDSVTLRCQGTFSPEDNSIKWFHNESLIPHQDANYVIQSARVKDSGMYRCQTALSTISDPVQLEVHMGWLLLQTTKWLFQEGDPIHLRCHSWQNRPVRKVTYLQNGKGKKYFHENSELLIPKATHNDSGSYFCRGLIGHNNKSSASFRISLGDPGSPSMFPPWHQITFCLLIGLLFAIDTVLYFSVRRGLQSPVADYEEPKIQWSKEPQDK
Briefly: Biacore binding of BI-505 isotype variants to mouse FcγRIV. As for the experimental part: His-tagged human FcγRIIIa or mouse FcγRIV were expressed transient in adherent HEK293E cells, purified using Ni-NTA chromatography and characterized using SDS-PAGE and/or Biacore. Surface plasmon resonance (SPR) measurements were perfomed using a Biacore 3000 instrument. Goat α-human-F(ab)′2 F(ab)′2 fragment (Jackson laboratories) was immobilised with a CM-5 chip using a standard amine coupling protocol. IgG1 B11, Iga4 B11, or 297Q B11 were diluted to 15 and 60 μg/mL respectively and added to the surface at […] for 3 min. His tagged human FcγRIIIa or mouse FcγRIV were pre-incubated with an α-HIS antibody (R&D Systems) at a 2:1 molar ratio before addition to the chip surface, […], 1 min. After each cycle the surface was regenerated twice with glycine buffer pH 1.7.

“Also recorded” adds a separate entry of the source.

B1: IgG B11: fully human ICAM-1 antibody isolated from the n-CoDeR library; VH/VL sequences in FIG. 15 (SEQ ID NOs 8, 10) (antibody, V domains shown)
VH: EVQLLESGGGLVQPGGSLRLSCAASGFTFSNAWMSWVRQAPGKGLEWVAFIWYDGSNKYYADSVKGRFTISRDNSKNTLYLQMNSLRAEDTAVYYCARYSGWYFDYWGQGTLVTVSS
VL: QSVLTQPPSASGTPGQRVTISCTGSSSNIGAGYDVHWYQQLPGTAPKLLIYDNNNRPSGVPDRFSGSKSGTSASLAISGLRSEDEADYYCQSYDSSLSAWLFGGGTKLTVLG
modifications: B11 VH region; B11 VL region
As for B1, the animal survival result in data set [1] is reported as “increased mean survival time”. Besides, the “time to symptomatic disease onset” value in data set [1] is “doubled”. Further, the values for the survival result in data set [2] and in data set [2] (listed as BI-505) were “significantly enhanced survival” and “significantly enhances survival; also recorded: highly improved survival”, respectively. The “In vivo IgG Levels (serum antibody titers)” value in data set [3] (dose 0.02 mg/kg) came out at 0.06 ± 0.02 µg/mL; in data set [3] (dose 0.2 mg/kg), 1.2 ± 0.4 µg/mL; in data set [3] (dose 2 mg/kg) it was 20 ± 2.9 µg/mL. For the same molecule, the “binding to murine FcγRIV” value in data set [4] is listed as “strong binding”.
